For one molecule, Kd results are on record in publication PMC7854685, “Histone Parylation factor 1 contributes to the inhibition of PARP1 by cancer drugs” (Nature Communications, 2021).

Usually Kd stands for the equilibrium constant for the complex coming apart.

Experiment [1] deals with PARP1 - Nuc165 complex (Alexa488-labelled PARP1 bound to a recombinant nucleosome with DNA linker ends of 7 and 11 base pairs) (UniProt P09874). As to the kind of experiment: FRET or BRET; Alexa647-HPF1 (0.6-10,000 nM, […] dilutions) titrated into Alexa488-PARP1 premixed with Nuc165 (20 nM) and DMSO (control, no olaparib); binding buffer 50 mM Tris-HCl pH 8.0, 50 mM NaCl, 1 mM MgCl2, 0.1 mM EDTA, 0.01% IGEPAL; 384-well plate.
PARP1 - Nuc165 complex (Alexa488-labelled PARP1 bound to a recombinant nucleosome with DNA linker ends of 7 and 11 base pairs), sequence (P09874 whole entry, looked up, one chain of several): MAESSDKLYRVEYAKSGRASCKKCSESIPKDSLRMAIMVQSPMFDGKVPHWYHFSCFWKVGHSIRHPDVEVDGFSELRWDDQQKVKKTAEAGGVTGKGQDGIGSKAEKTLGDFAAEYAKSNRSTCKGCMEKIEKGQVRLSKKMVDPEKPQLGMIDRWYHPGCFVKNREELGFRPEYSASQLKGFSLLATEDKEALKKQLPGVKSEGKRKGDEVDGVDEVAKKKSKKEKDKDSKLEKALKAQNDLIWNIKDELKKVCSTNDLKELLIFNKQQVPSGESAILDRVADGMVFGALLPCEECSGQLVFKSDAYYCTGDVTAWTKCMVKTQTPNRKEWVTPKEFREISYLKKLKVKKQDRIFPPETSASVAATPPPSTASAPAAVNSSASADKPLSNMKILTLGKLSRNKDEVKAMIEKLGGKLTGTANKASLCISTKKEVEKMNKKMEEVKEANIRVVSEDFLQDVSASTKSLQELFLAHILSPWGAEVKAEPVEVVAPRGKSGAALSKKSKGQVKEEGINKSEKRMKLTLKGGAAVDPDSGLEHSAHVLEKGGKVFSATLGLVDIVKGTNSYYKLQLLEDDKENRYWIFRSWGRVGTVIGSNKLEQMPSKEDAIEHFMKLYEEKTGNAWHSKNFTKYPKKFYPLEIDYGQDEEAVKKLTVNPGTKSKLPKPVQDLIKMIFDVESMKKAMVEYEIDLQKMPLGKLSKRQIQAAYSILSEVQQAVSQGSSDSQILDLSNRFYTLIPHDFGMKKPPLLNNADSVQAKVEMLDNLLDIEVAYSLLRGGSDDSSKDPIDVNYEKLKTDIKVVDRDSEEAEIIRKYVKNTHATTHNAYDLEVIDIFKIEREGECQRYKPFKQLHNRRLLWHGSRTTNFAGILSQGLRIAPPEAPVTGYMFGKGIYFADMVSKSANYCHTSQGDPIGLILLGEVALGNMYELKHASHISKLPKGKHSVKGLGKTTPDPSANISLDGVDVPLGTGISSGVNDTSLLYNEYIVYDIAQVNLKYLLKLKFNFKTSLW

Experiment [2] has the same target. As to the kind of experiment: FRET or BRET; as a1 but with olaparib (1 uM): Alexa647-HPF1 titrated into Alexa488-PARP1 premixed with Nuc165 (20 nM) and olaparib; binding buffer. On the technique in general: BRET reads energy transfer from a luciferase to a nearby fluorophore.

B1: Histone PARylation factor 1 (HPF1), labelled with Alexa647 (natural protein)
chain: LRKEVENHYKLSLPEDFYHFWKFCEELDPEKPSDSLSASLGLQLVGPYDILAGKHKTKKKSTGLNFNLHWRFYYDPPEFQTIIIGDNKTQYHMGYFRDSPDEFPVYVGINEAKKNCIIVPNGDNVFAAVKLFLTKKLREITDKKKINLLKNIDEKLTEAARELGYSLEQRTVKMKQRDKKVVTKTFHGAGLVVPVDKNDVGYRELPETDADLKRICKTIVEAASDEERLKAFAPIQEMMTFVQFANDECDYGMGLELGMDLFCYGSHYFHKVAGQLLPLAYNLLKRNLFAEIIEEHLANRSQENIDQLAA
modifications: Alexa647 C2 maleimide label (extent of labeling typically 50-100%)
As for B1, the Kd in experiment [1] turned out to be 790 nM; in experiment [2], 229 nM.
